Test results as given in US20200369755A1 (PROTHENA BIOSCIENCES, published 2020).
Where no end group is shown, it is not given here.

Tests used:
Test in all cases: peptide ELISA, biotinylated peptide on streptavidin plate; background-subtracted absorbance; positive from 0.2
109-123 = target: T1, 109-123 (also: biotinylated, site not given here)
T1 construct: also called tau peptide 109-123 (4R0N numbering)
T1 peptide: NATRIPAKTPPAPKT
Method: (§1) Additional peptides were used to model potential post-translational modifications of the C- and N-terminal ends of the protein.
(§2) Biotinylated peptides were bound to separate wells of a streptavidin-coated ELISA plate. The plate was blocked and treated with murine 3D6, followed by incubation with a horseradish peroxidase-conjugated anti-mouse antibody. After thorough washing, OPD was applied to the plate and allowed to develop. The plate was read at 450 nm absorbance. Background subtraction was performed with absorbance values from wells containing no primary antibody, and a threshold for positive binding was set to 0.2 absorbance units. […] (FIG. 1)

118-132 = target: T2, 118-132 (also: biotinylated, site not given here)
T2 peptide: PPAPKTPPSSGEPPK
Method: as §1, §2

127-141 = target: T3, 127-141 (also: biotinylated, site not given here)
T3 peptide: SGEPPKSGDRSGYSS
Method: as §1, §2

145-159 = target: T4, 145-159 (also: biotinylated, site not given here)
T4 peptide: PGTPGSRSRTPSLPT
Method: as §1, §2

163-177 = target: T5, 163-177 (also: biotinylated, site not given here)
T5 peptide: REPKKVAVVRTPPKS
Method: as §1, §2

172-186 = target: T6, 172-186 (also: biotinylated, site not given here)
T6 construct: also called tau peptide 172-186 (4R0N numbering)
T6 peptide: RTPPKSPSSAKSRLQ
Method: as §1, §2

181-195 = target: T7, 181-195 (also: biotinylated, site not given here)
T7 peptide: AKSRLQTAPVPMPDL
Method: as §1, §2

217-231 = target: T8, 217-231 (also: biotinylated, site not given here)
T8 construct: also called tau peptide 217-231 (4R0N numbering)
T8 peptide: VQIINKKLDLSNVQS
Method: as §1, §2

280-294 = target: T9, 280-294 (also: biotinylated, site not given here)
T9 construct: also called tau peptide 280-294 (4R0N numbering)
T9 peptide: EVKSEKLDFKDRVQS
Method: as §1, §2

298-312 = target: T10, 298-312 (also: biotinylated, site not given here)
T10 construct: also called tau peptide 298-312 (4R0N numbering)
T10 peptide: SLDNITHVPGGGNKK
Method: as §1, §2

307-321 = target: T11, 307-321 (also: biotinylated, site not given here)
T11 construct: also called tau peptide 307-321 (4R0N numbering)
T11 peptide: GGGNKKIETHKLTFR
Method: as §1, §2

343-357 = target: T12, 343-357 (also: biotinylated, site not given here)
T12 construct: also called tau peptide 343-357 (4R0N numbering)
T12 peptide: GDTSPRHLSNVSSTG
Method: as §1, §2

352-366 = target: T13, 352-366 (also: biotinylated, site not given here)
T13 construct: also called tau peptide 352-366 (4R0N numbering)
T13 peptide: NVSSTGSIDMVDSPQ
Method: as §1, §2

19-33 = target: T14, 19-33 (also: biotinylated, site not given here)
T14 construct: also called tau peptide 19-33 (4R0N numbering)
T14 peptide: GLGDRKDQGGYTMHQ
Method: as §1, §2

361-375 = target: T15, 361-375 (also: biotinylated, site not given here)
T15 peptide: MVDSPQLATLADEVS
Method: as §1, §2

369-383 (free C-term) = target: T16, 369-383 (free C-term) (also: biotinylated, site not given here)
T16 peptide: TLADEVSASLAKQGL-OH
Method: as §1, §2

28-42 = target: T17, 28-42 (also: biotinylated, site not given here)
T17 construct: also called tau peptide 28-42 (4R0N numbering)
T17 peptide: GYTMHQDQEGDTDAG
Method: as §1, §2

37-51 = target: T18, 37-51 (also: biotinylated, site not given here)
T18 construct: also called tau peptide 37-51 (4R0N numbering)
T18 peptide: GDTDAGLKAEEAGIG
Method: as §1, §2

46-60 = target: T19, 46-60 (also: biotinylated, site not given here)
T19 construct: also called tau peptide 46-60 (4R0N numbering)
T19 peptide: EEAGIGDTPSLEDEA
Method: as §1, §2

55-69 = target: T20, 55-69 (also: biotinylated, site not given here)
T20 construct: also called tau peptide 55-69 (4R0N numbering)
T20 peptide: SLEDEAAGHVTQARM
Method: as §1, §2

64-78 = target: T21, 64-78 (also: biotinylated, site not given here)
T21 construct: also called tau peptide 64-78 (4R0N numbering)
T21 peptide: VTQARMVSKSKDGTG
Method: as §1, §2

binding result (109-123): no binding
binding result (118-132): no binding
binding result (127-141): no binding
binding result (145-159): no binding
binding result (163-177): no binding
binding result (172-186): no binding
binding result (181-195): no binding
binding result (217-231): no binding
binding result (280-294): no binding
binding result (298-312): no binding
binding result (307-321): no binding
binding result (343-357): no binding
binding result (352-366): no binding
binding result (19-33): no binding
binding result (361-375): no binding
binding result (369-383 (free C-term)): no binding
binding result (28-42): no binding
binding result (37-51): no binding
binding result (46-60): no binding
binding result (55-69): no binding
binding result (64-78): no binding
B1: murine 3D6 monoclonal antibody (antibody, IgG1, V domains shown)
VH: EVQLQQSGADLVRPGALVKLSCKASGFNIKDYYLHWVRQRPEQGLEWIGWIDPENGDTVYDPKFQGKATITADTSSNTAYLQLGSLTSEDTAVYFCSTLDFWGQGTTLTVSS
VL: not shown
notes: Hybridoma-derived mouse antibody; also called m3D6; mouse 3D6
